Test results published in US20090208416A1.

Key:
[1] = target: NKG2A on cynomolgus monkey NK cells (cynomolgus monkey) (UniProt Q68VD2); experiment: FACS cynomolgus whole blood, animal AK729
[2] = target: NKG2A on rhesus monkey (Macaca mulatta) NK cells (rhesus monkey (Macaca mulatta)) (UniProt Q9MZJ3); experiment: FACS rhesus whole blood, animal R00023
[3] = target: NKG2A on baboon NK cells (baboon); experiment: FACS baboon whole blood NK cells, animal V9812
[4] = target: NKG2A on rhesus monkey (Macaca mulatta) NK cells (rhesus monkey (Macaca mulatta)) (UniProt Q9MZJ3); experiment: FACS rhesus whole blood, animal R00077
[5] = target: NKG2A on rhesus monkey (Macaca mulatta) NK cells (rhesus monkey (Macaca mulatta)) (UniProt Q9MZJ3); experiment: FACS rhesus whole blood, animal R00041
[6] = target: NKG2A on cynomolgus monkey NK cells (cynomolgus monkey) (UniProt Q68VD2); experiment: FACS cynomolgus whole blood, animal AK565
[7] = target: NKG2A on baboon NK cells (baboon); experiment: FACS baboon whole blood NK cells, animal V989
[8] = target: NKG2A on baboon NK cells (baboon); experiment: FACS baboon whole blood NK cells, animal V9920
[9] = target: NKG2A on rhesus monkey (Macaca mulatta) NK cells (rhesus monkey (Macaca mulatta)) (UniProt Q9MZJ3); experiment: FACS rhesus whole blood NK cells, animal N0401
[10] = target: NKG2A on rhesus monkey (Macaca mulatta) NK cells (rhesus monkey (Macaca mulatta)) (UniProt Q9MZJ3); experiment: FACS rhesus whole blood, animal R00025
[11] = target: NKG2A on baboon NK cells (baboon); experiment: FACS baboon whole blood NK cells, animal PA977
[12] = target: NKG2A on rhesus monkey (Macaca mulatta) NK cells (rhesus monkey (Macaca mulatta)) (UniProt Q9MZJ3); experiment: FACS rhesus whole blood, animal R00101
[13] = target: NKG2A on baboon NK cells (baboon); experiment: FACS baboon whole blood NK cells, animal V9912
[14] = target: NKG2A on cynomolgus monkey NK cells (cynomolgus monkey) (UniProt Q68VD2); experiment: FACS cynomolgus whole blood, animal AL210
[15] = target: NKG2A on rhesus monkey (Macaca mulatta) NK cells (rhesus monkey (Macaca mulatta)) (UniProt Q9MZJ3); experiment: FACS rhesus whole blood NK cells, animal MM031
[16] = target: NKG2A on baboon NK cells (baboon); experiment: FACS baboon whole blood NK cells, animal K938A
[17] = target: NKG2A on rhesus monkey (Macaca mulatta) NK cells (rhesus monkey (Macaca mulatta)) (UniProt Q9MZJ3); experiment: FACS rhesus whole blood NK cells, animal 201
[18] = target: NKG2A on rhesus monkey (Macaca mulatta) NK cells (rhesus monkey (Macaca mulatta)) (UniProt Q9MZJ3); experiment: FACS rhesus whole blood NK cells, animal RU925
[19] = target: NKG2A on rhesus monkey (Macaca mulatta) NK cells (rhesus monkey (Macaca mulatta)) (UniProt Q9MZJ3); experiment: FACS rhesus whole blood, animal 31828
[20] = target: NKG2A on baboon NK cells (baboon); experiment: FACS baboon whole blood NK cells, animal V942A
[21] = target: NKG2A on rhesus monkey (Macaca mulatta) NK cells (rhesus monkey (Macaca mulatta)) (UniProt Q9MZJ3); experiment: FACS rhesus whole blood, animal R00099
[22] = target: NKG2A on baboon NK cells (baboon); experiment: FACS baboon whole blood NK cells, animal V9929
[23] = target: NKG2A on rhesus monkey (Macaca mulatta) NK cells (rhesus monkey (Macaca mulatta)) (UniProt Q9MZJ3); experiment: FACS rhesus whole blood NK cells, mean of 9 animals
[24] = target: NKG2A on rhesus monkey (Macaca mulatta) NK cells (rhesus monkey (Macaca mulatta)) (UniProt Q9MZJ3); experiment: FACS rhesus whole blood, animal 34459
[25] = target: NKG2A on baboon NK cells (baboon); experiment: FACS baboon whole blood NK cells, animal V914B
[26] = target: NKG2A on rhesus monkey (Macaca mulatta) NK cells (rhesus monkey (Macaca mulatta)) (UniProt Q9MZJ3); experiment: FACS rhesus whole blood, mean over animals
[27] = target: NKG2A on rhesus monkey (Macaca mulatta) NK cells (rhesus monkey (Macaca mulatta)) (UniProt Q9MZJ3); experiment: FACS rhesus whole blood NK cells, animal *8703

Sequence of UniProt Q68VD2 (Q68VD2 entry or part of it): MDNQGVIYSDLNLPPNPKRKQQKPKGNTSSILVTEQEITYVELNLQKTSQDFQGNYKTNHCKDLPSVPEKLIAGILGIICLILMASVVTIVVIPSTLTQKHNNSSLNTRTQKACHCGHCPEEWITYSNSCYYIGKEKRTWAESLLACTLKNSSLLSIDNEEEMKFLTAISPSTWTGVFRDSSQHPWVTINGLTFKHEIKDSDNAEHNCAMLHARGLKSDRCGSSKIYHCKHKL
Sequence of UniProt Q9MZJ3 (Q9MZJ3 whole entry): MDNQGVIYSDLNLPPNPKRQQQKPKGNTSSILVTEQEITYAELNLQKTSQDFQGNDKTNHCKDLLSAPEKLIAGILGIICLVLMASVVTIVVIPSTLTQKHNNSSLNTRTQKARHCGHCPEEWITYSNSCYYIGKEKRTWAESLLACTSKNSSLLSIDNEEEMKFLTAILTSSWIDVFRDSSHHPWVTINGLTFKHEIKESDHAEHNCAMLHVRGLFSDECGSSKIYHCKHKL

% NK+ [1]: 0.3% | MFI [1]: 0.6 | % NK+ [2]: 0.3% | MFI [2]: 0.5 | % [3]: 1.3% | tot. MFI [3]: 1.2 | % NK+ [4]: 0.4% | MFI [4]: 0.41 | % NK+ [5]: 0.9% | MFI [5]: 0.48 | % NK+ [6]: 0.6% | MFI [6]: 0.66 | % [7]: 1.2% | tot. MFI [7]: 1.2 | % [8]: 0.7% | tot. MFI [8]: 0.8 | % [9]: 0.5% | % NK+ [10]: 0.7% | MFI [10]: 0.45 | % [11]: 0.9% | tot. MFI [11]: 1.1 | % NK+ [12]: 0.5% | MFI [12]: 0.58 | % [13]: 0.2% | tot. MFI [13]: 0.2 | % NK+ [14]: 0.4% | MFI [14]: 0.65 | % [15]: 0.4% | % [16]: 0.3% | tot. MFI [16]: 0.3 | % [17]: 1.3% | % [18]: 0.4% | % NK+ [19]: 0.4% | MFI [19]: 0.65 | % [20]: 1.7% | tot. MFI [20]: 1 | % NK+ [21]: 1.2% | MFI [21]: 0.56 | % [22]: 0.3% | tot. MFI [22]: 0.2 | % (Mean) [23]: 0.7% | % NK+ [24]: 1.4% | MFI [24]: 0.76 | % [25]: 0.4% | tot. MFI [25]: 1.1 | % NK+ (Mean) [26]: 0.7% | MFI (Mean) [26]: 0.6 | % [27]: 0.4%
Substance: mouse IgG1 isotype control (antibody)
